Results taken from the supplement of paper PMC9112550, “Optimization of the antimicrobial peptide Bac7 by deep mutational scanning” (BMC Biology, 2022).

System: Escherichia coli TOP10
Test: shrunken log2 fold change of peptide-encoding DNA abundance (4.5 h post-induction vs induction); higher = less antimicrobial activity (less host growth inhibition)
Settings: time post-induction: 4.5 h; library: site-saturation at positions 5, 18, 19, 20
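Also: peptides expressed intracellularly from a pBAD plasmid library in pooled LB shake-flask culture, induced with 0.3% L-arabinose, DNA abundance read by NGS, three biological replicates, DESeq2 with apeglm shrinkage.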

RRIRLRPPRLPRPRPRPAVYPRP
shrunken log2 fold change: 0.00171

RRIRLRPPRLPRPRPRPAYAPRP
shrunken log2 fold change: -0.0747

RRIRLRPPRLPRPRPRPAYVPRP
shrunken log2 fold change: -0.177

RRIRLRPPRLPRPRPRPCAMPRP
shrunken log2 fold change: 0.00887

RRIRLRPPRLPRPRPRPCAYPRP
shrunken log2 fold change: -0.189

RRIRLRPPRLPRPRPRPCDMPRP
shrunken log2 fold change: -0.0352

RRIRLRPPRLPRPRPRPCECPRP
shrunken log2 fold change: 0.202

RRIRLRPPRLPRPRPRPCEIPRP
shrunken log2 fold change: 0.0237

RRIRLRPPRLPRPRPRPCEMPRP
shrunken log2 fold change: -0.0934

RRIRLRPPRLPRPRPRPCFPPRP
shrunken log2 fold change: -0.206

RRIRLRPPRLPRPRPRPCGLPRP
shrunken log2 fold change: 0.142

RRIRLRPPRLPRPRPRPCKHPRP
shrunken log2 fold change: -0.0106

RRIRLRPPRLPRPRPRPCMEPRP
shrunken log2 fold change: 0.115

RRIRLRPPRLPRPRPRPCMNPRP
shrunken log2 fold change: -0.07

RRIRLRPPRLPRPRPRPCNEPRP
shrunken log2 fold change: -0.0438

RRIRLRPPRLPRPRPRPCPEPRP
shrunken log2 fold change: -0.0401

RRIRLRPPRLPRPRPRPCPKPRP
shrunken log2 fold change: 0.136

RRIRLRPPRLPRPRPRPCTHPRP
shrunken log2 fold change: -0.0381

RRIRLRPPRLPRPRPRPCTNPRP
shrunken log2 fold change: -0.094

RRIRLRPPRLPRPRPRPCWSPRP
shrunken log2 fold change: -0.172

RRIRLRPPRLPRPRPRPCYNPRP
shrunken log2 fold change: -0.206

RRIRLRPPRLPRPRPRPDCNPRP
shrunken log2 fold change: 0.0608

RRIRLRPPRLPRPRPRPDCSPRP
shrunken log2 fold change: 0.0574

RRIRLRPPRLPRPRPRPDEMPRP
shrunken log2 fold change: 0.123

RRIRLRPPRLPRPRPRPDFKPRP
shrunken log2 fold change: -0.06

RRIRLRPPRLPRPRPRPDFQPRP
shrunken log2 fold change: 0.157

RRIRLRPPRLPRPRPRPDFVPRP
shrunken log2 fold change: -0.108

RRIRLRPPRLPRPRPRPDGMPRP
shrunken log2 fold change: -0.153

RRIRLRPPRLPRPRPRPDHCPRP
shrunken log2 fold change: -0.0562

RRIRLRPPRLPRPRPRPDIAPRP
shrunken log2 fold change: 0.024

RRIRLRPPRLPRPRPRPDKIPRP
shrunken log2 fold change: -0.494

RRIRLRPPRLPRPRPRPDKSPRP
shrunken log2 fold change: -0.118

RRIRLRPPRLPRPRPRPDMKPRP
shrunken log2 fold change: -0.286

RRIRLRPPRLPRPRPRPDPTPRP
shrunken log2 fold change: 0.0311

RRIRLRPPRLPRPRPRPDQAPRP
shrunken log2 fold change: -0.00133

RRIRLRPPRLPRPRPRPDRDPRP
shrunken log2 fold change: -0.154

RRIRLRPPRLPRPRPRPDRVPRP
shrunken log2 fold change: -0.0538

RRIRLRPPRLPRPRPRPDSRPRP
shrunken log2 fold change: 0.0292

RRIRLRPPRLPRPRPRPDSSPRP
shrunken log2 fold change: 0.00161

RRIRLRPPRLPRPRPRPDTIPRP
shrunken log2 fold change: -0.21

RRIRLRPPRLPRPRPRPDTNPRP
shrunken log2 fold change: -0.103

RRIRLRPPRLPRPRPRPDVRPRP
shrunken log2 fold change: 0.0235

RRIRLRPPRLPRPRPRPDWDPRP
shrunken log2 fold change: -0.183

RRIRLRPPRLPRPRPRPDYNPRP
shrunken log2 fold change: -0.657

RRIRLRPPRLPRPRPRPEAGPRP
shrunken log2 fold change: 0.375

RRIRLRPPRLPRPRPRPECAPRP
shrunken log2 fold change: 0.65

RRIRLRPPRLPRPRPRPECFPRP
shrunken log2 fold change: 0.226

RRIRLRPPRLPRPRPRPECIPRP
shrunken log2 fold change: -0.0423

RRIRLRPPRLPRPRPRPEDFPRP
shrunken log2 fold change: 0.0854

RRIRLRPPRLPRPRPRPEDMPRP
shrunken log2 fold change: 0.0524

RRIRLRPPRLPRPRPRPEECPRP
shrunken log2 fold change: 0.00698

RRIRLRPPRLPRPRPRPEEDPRP
shrunken log2 fold change: -0.00133

RRIRLRPPRLPRPRPRPEEVPRP
shrunken log2 fold change: -0.00242

RRIRLRPPRLPRPRPRPEFCPRP
shrunken log2 fold change: 0.11

RRIRLRPPRLPRPRPRPEFMPRP
shrunken log2 fold change: -0.109

RRIRLRPPRLPRPRPRPEFNPRP
shrunken log2 fold change: -0.0571

RRIRLRPPRLPRPRPRPEFRPRP
shrunken log2 fold change: 0.126

RRIRLRPPRLPRPRPRPEFSPRP
shrunken log2 fold change: -0.013

RRIRLRPPRLPRPRPRPEGLPRP
shrunken log2 fold change: 0.206

RRIRLRPPRLPRPRPRPEHYPRP
shrunken log2 fold change: -0.00385

RRIRLRPPRLPRPRPRPEITPRP
shrunken log2 fold change: -0.11

RRIRLRPPRLPRPRPRPEKHPRP
shrunken log2 fold change: -0.262

RRIRLRPPRLPRPRPRPEKLPRP
shrunken log2 fold change: -0.00411

RRIRLRPPRLPRPRPRPELNPRP
shrunken log2 fold change: 0.145

RRIRLRPPRLPRPRPRPELRPRP
shrunken log2 fold change: 0.214

RRIRLRPPRLPRPRPRPEMAPRP
shrunken log2 fold change: 0.113

RRIRLRPPRLPRPRPRPEQAPRP
shrunken log2 fold change: 0.0554

RRIRLRPPRLPRPRPRPEQMPRP
shrunken log2 fold change: 0.126

RRIRLRPPRLPRPRPRPEQYPRP
shrunken log2 fold change: -0.122

RRIRLRPPRLPRPRPRPESTPRP
shrunken log2 fold change: 0.0274

RRIRLRPPRLPRPRPRPEVIPRP
shrunken log2 fold change: 0.178

RRIRLRPPRLPRPRPRPEVRPRP
shrunken log2 fold change: -0.0732

RRIRLRPPRLPRPRPRPEWWPRP
shrunken log2 fold change: 0.124

RRIRLRPPRLPRPRPRPEYWPRP
shrunken log2 fold change: -0.0516

RRIRLRPPRLPRPRPRPFCQPRP
shrunken log2 fold change: -0.078
